The source of these data is paper PMC6771245, “CMKLR1-targeting peptide tracers for PET/MR imaging of breast cancer” (Theranostics, 2019).

One series in a line: in vivo. The following applies: female, mouse, iv, 10 MBq, total radioactivity. The source says: (§1) For in vivo experiments, at least 8-week-old female athymic NMRI-Foxn1^nu /Foxn1^nu mice (Janvier Labs, Saint-Berthevin, France) were used. Animal care followed institutional guidelines and all experiments were approved by local animal research authorities. For the generation of tumor xenografts, 5 x 10^6 cells of both DU4475 and A549 cells were inoculated subcutaneously into the right and left shoulder, respectively (1:1 phosphate-buffered saline [PBS]/Matrigel Basement Membrane Matrix High Concentration, Corning, Corning, USA). Part of the animals received SW13 lung cancer cells as a CMKLR1-negative control tumor. For the analysis of biodistribution, only data of […] and A549 xenograft tumors are used. Tumors were allowed to grow for two to four weeks (tumor volume > 100 mm^3) after cell inoculation.
(§2) Radiolabeling experiments were performed on a Modular Lab PharmTracer synthesis module (Eckert & Ziegler, Berlin, Germany) which allows fully automated cassette-based labeling of gallium tracers utilizing a pharmaceutical grade ^68Ge/^68Ga generator (GalliaPharm, 1.85 GBq, good manufacturing practice [GMP]-certified; Eckert & Ziegler GmbH, Berlin, Germany). Cassettes were GMP-certified and sterile. They were used without pre-conditioning of the cartridges. The gallium generator was eluted with aqueous HCl (0.1 M, 7 mL) and the eluate was purified on an ion-exchange cartridge followed by elution using 1 mL of 0.1 M HCl in acetone. The peptide-DOTA conjugate (50 µg from a stock solution 1 mg/mL in 10% dimethyl sulfoxide [DMSO] in water) was mixed with 500 µL 0.1 M HEPES buffer (pH 7) and heated for 500 seconds at 95 °C. After the reaction, the mixture was passed through a C-18 cartridge for purification and the tracer was eluted from the cartridge with ethanol. In order to control the quality of radiolabeling, the radiochemical yield, purity, and specific activity for all five peptide-DOTA conjugates and each individual labeling experiment was determined. Overall, a radiochemical yield of 82.1% ± 6.7%, a radiochemical purity of 98.1 ± 4.6% and a molar activity of 8.6 GBq/µmol ± 2.7 GBq/µmol was achieved (Table S1). Before animal injection, the activity was equilibrated to neutral pH using 1 M sodium hydrogen carbonate. It was further diluted with saline to ≤ 10% ethanol.
(§3) Tumor-bearing mice were injected with approximately 10 MBq of ^68Ga-labeled DOTA-peptide or 1 MBq of ^177Lu-labeled DOTA-peptide to the tail vein via a catheter. Mice were sacrificed and dissected one or two hours after injection. Tumor, blood, stomach, pancreas, small intestine, colon, liver, spleen, kidney, heart, lung, muscle and femur samples were weighed and uptake of radioactivity was measured by a gamma counter. To determine the effect of unlabeled ligand on the tumor uptake, 200 nmol CG34 peptide (100-fold excess) was co-injected.

The subject of series [1] is DU4475/A549 xenograft model. The series is described as follows: in vivo. The following applies: mouse.
Excerpt: as §1, §2, §3

Where [2] appears, read: athymic NMRI-Foxn1^nu/Foxn1^nu, A549 tumor uptake.
The mark [3] stands for this setting: athymic NMRI-Foxn1^nu/Foxn1^nu, DU4475 tumor uptake.
Where [4] appears, read: athymic NMRI-Foxn1^nu/Foxn1^nu, blood uptake.
Where [5] appears, read: athymic NMRI-Foxn1^nu/Foxn1^nu, heart uptake.
Where [6] appears, read: athymic NMRI-Foxn1^nu/Foxn1^nu, kidney uptake.
Where [7] appears, read: athymic NMRI-Foxn1^nu/Foxn1^nu, liver uptake.
Where [8] appears, read: athymic NMRI-Foxn1^nu/Foxn1^nu, lung uptake.
[9] abbreviates: athymic NMRI-Foxn1^nu/Foxn1^nu, muscle uptake.
[10] abbreviates: athymic NMRI-Foxn1^nu/Foxn1^nu, spleen uptake.
Where [11] appears, read: athymic NMRI-Foxn1nu/Foxn1nu, colon uptake.
Setting [12] is: athymic NMRI-Foxn1nu/Foxn1nu, femur uptake.
Setting [13] is: athymic NMRI-Foxn1nu/Foxn1nu, muscle uptake.
[14] abbreviates: athymic NMRI-Foxn1nu/Foxn1nu, pancreas uptake.
The mark [15] stands for this setting: athymic NMRI-Foxn1nu/Foxn1nu, small intestine uptake.
The mark [16] stands for this setting: athymic NMRI-Foxn1nu/Foxn1nu, spleen uptake.
[17] abbreviates: athymic NMRI-Foxn1nu/Foxn1nu, stomach uptake.
[18] abbreviates: athymic NMRI-Foxn1nu/Foxn1nu, tumor-to-blood ratio.
The mark [19] stands for this setting: athymic NMRI-Foxn1nu/Foxn1nu, tumor-to-kidney ratio.
Where [20] appears, read: athymic NMRI-Foxn1nu/Foxn1nu, tumor-to-liver ratio.
Setting [21] is: athymic NMRI-Foxn1nu/Foxn1nu, tumor-to-muscle ratio.
The mark [22] stands for this setting: athymic NMRI-Foxn1nu/Foxn1nu, tumor-to-pancreas ratio.

*1 amine or outer side, *2 acyl side, *3 side chain or, on linkers, in order; H or OH if unused. Where a SMILES comes first, the peptide text is derived from it. [ ]: non-standard residue; d: D form. The star is where a group is joined. X1 = O=C(O)CN1CCN(CC(=O)O)CCN(CC(=O)NCCCOCCOCCOCCCN*)CCN(CC(=O)O)CC1; DOTA = O=C(O)CN1CCN(CC(=O)O)CCN(CC(=O)*)CCN(CC(=O)O)CC1; NH(CH2)9CO = O=C(CCCCCCCCCN[*:1])[*:2]; Hyp = O=C(O)[C@@H]1C[C@@H](O)CN1; Tic = O=C(O)[C@@H]1Cc2ccccc2CN1; Cha = N[C@@H](CC1CCCCC1)C(=O)O; Cit = NC(=O)NCCC[C@H](N)C(=O)O; Suc = O=C(CCC(=O)[*:2])[*:1]; Ahx = NCCCCCC(=O)O

Consider `C[C@@H](NC(=O)[C@H](Cc1ccccc1)NC(=O)[C@H](CCCNC(N)=O)NC(=O)CNC(=O)[C@@H]1C[C@@H](O)CN1C(=O)[C@H](CC1CCCCC1)NC(=O)[C@H](Cc1ccc(O)cc1)NC(=O)CCCCCCCCCNC(=O)CN1CCN(CC(=O)O)CCN(CC(=O)O)CCN(CC(=O)O)CC1)C(=O)N1Cc2ccccc2C[C@H]1C(=O)N[C@@H](CO)C(=O)O` [[^68Ga]Ga-DOTA-ADX-CG34, metal not drawn] ({DOTA}-[NH(CH2)9CO]Y[Cha][Hyp]G[Cit]F[dA][Tic]S-OH), for which the tissue uptake at 1 h was determined as 2.7 %ID/g in the series “in vivo” (setting [2]); 6.2 %ID/g in “in vivo” (setting [3]); 2.8 %ID/g in “in vivo” (setting [4]); 2.2 %ID/g in the series “in vivo” (setting [5]); 10.3 %ID/g in the series “in vivo” (setting [6]); 14.2 %ID/g in “in vivo” (setting [7]). Further, the tissue uptake at 1 h in “in vivo” (setting [8]) worked out at 7.1 %ID/g; in the series “in vivo” (setting [9]), 1.1 %ID/g; in the series “in vivo” (setting [10]) it was 7.8 %ID/g; in “in vivo” (setting [11]), 3.2 %ID/g; in “in vivo” (setting [12]), 1.3 %ID/g; in the series “in vivo” (setting [14]), 1.7 %ID/g. For the same compound, the tissue uptake at 1 h was 3.8 %ID/g in the series “in vivo” (setting [15]) and 2.2 %ID/g in the series “in vivo” (setting [17]). Moreover, the tissue uptake at 2 h is 4.2 %ID/g in the series “in vivo” (setting [3]); 0.8 %ID/g in the series “in vivo” (setting [4]); 1.2 %ID/g in the series “in vivo” (setting [5]); 5.5 %ID/g in “in vivo” (setting [6]); 12.5 %ID/g in the series “in vivo” (setting [7]); 3.9 %ID/g in the series “in vivo” (setting [8]). Further, the tissue uptake at 2 h in “in vivo” (setting [11]) amounted to 2.3 %ID/g; in the series “in vivo” (setting [12]), 0.7 %ID/g; in “in vivo” (setting [13]), 0.6 %ID/g; in the series “in vivo” (setting [14]) it was 1.1 %ID/g; in “in vivo” (setting [15]), 4.4 %ID/g; in the series “in vivo” (setting [16]), 5.4 %ID/g. Further, the tissue uptake at 2 h in “in vivo” (setting [17]) was 1.5 %ID/g. The tissue to tissue ratio at 1 h is 3 in “in vivo” (setting [18]); 0.8 in “in vivo” (setting [19]); 0.4 in the series “in vivo” (setting [20]); 6.3 in “in vivo” (setting [21]); 3.9 in “in vivo” (setting [22]). Further, the tissue to tissue ratio at 2 h in “in vivo” (setting [18]) stood at 5.7; in “in vivo” (setting [19]) it was 0.8; in the series “in vivo” (setting [20]), 0.3; in the series “in vivo” (setting [21]) it was 7.2; in “in vivo” (setting [22]) it was 3.9. Further, in series [1], the “DU4475 tumor uptake after two hours as % of the 1 h-value” was “approx. 68%”. The “higher uptake in CMKLR1-positive DU4475 tumors than in target-negative A549 tumors” value in series [1] came out at 2.3 fold.

Regarding `C[C@@H](NC(=O)[C@H](Cc1ccccc1)NC(=O)[C@H](CCCNC(N)=O)NC(=O)CNC(=O)[C@@H]1C[C@@H](O)CN1C(=O)[C@H](CC1CCCCC1)NC(=O)[C@H](Cc1ccc(O)cc1)NC(=O)CCCCCNC(=O)CN1CCN(CC(=O)O)CCN(CC(=O)O)CCN(CC(=O)O)CC1)C(=O)N1Cc2ccccc2C[C@H]1C(=O)N[C@@H](CO)C(=O)O` [[^68Ga]Ga-DOTA-AHX-CG34, metal not drawn] ({DOTA-Ahx}-Y[Cha][Hyp]G[Cit]F[dA][Tic]S-OH), the tissue uptake at 1 h came to 3 %ID/g in the series “in vivo” (setting [2]); 5.1 %ID/g in “in vivo” (setting [3]); 1.2 %ID/g in “in vivo” (setting [4]); 1.2 %ID/g in “in vivo” (setting [5]); 6.5 %ID/g in “in vivo” (setting [6]); 2.4 %ID/g in “in vivo” (setting [7]). Also, the tissue uptake at 1 h worked out at 4.2 %ID/g in “in vivo” (setting [8]); 0.7 %ID/g in “in vivo” (setting [9]); 6.3 %ID/g in “in vivo” (setting [10]); 2.7 %ID/g in “in vivo” (setting [11]); 0.8 %ID/g in the series “in vivo” (setting [12]); 1 %ID/g in “in vivo” (setting [14]). Besides, the tissue uptake at 1 h in the series “in vivo” (setting [15]) came to 2.1 %ID/g; in the series “in vivo” (setting [17]), 1.7 %ID/g. In addition, the tissue uptake at 2 h turned out to be 4.9 %ID/g in the series “in vivo” (setting [3]); 0.4 %ID/g in the series “in vivo” (setting [4]); 1.1 %ID/g in “in vivo” (setting [5]); 6.6 %ID/g in “in vivo” (setting [6]); 2.4 %ID/g in “in vivo” (setting [7]); 2.8 %ID/g in “in vivo” (setting [8]). Moreover, the tissue uptake at 2 h in the series “in vivo” (athymic NMRI-Foxn1nu/Foxn1nu, A549 tumor uptake) stood at 1.4 %ID/g; in the series “in vivo” (setting [11]), 2.6 %ID/g; in the series “in vivo” (setting [12]), 0.7 %ID/g; in the series “in vivo” (setting [13]), 0.5 %ID/g; in the series “in vivo” (setting [14]), 0.8 %ID/g; in “in vivo” (setting [15]) it was 2 %ID/g. For the same compound, the values for the tissue uptake at 2 h in the series “in vivo” (setting [16]) and in the series “in vivo” (setting [17]) were 5 %ID/g and 1.3 %ID/g, respectively. For the same compound, the tissue to tissue ratio at 1 h in “in vivo” (setting [18]) turned out to be 5.9; in “in vivo” (setting [19]), 0.9; in the series “in vivo” (setting [20]) it was 2.3; in “in vivo” (setting [21]), 8.5; in “in vivo” (setting [22]), 5.6. Besides, the tissue to tissue ratio at 2 h came out at 13.3 in “in vivo” (setting [18]); 0.7 in “in vivo” (setting [19]); 2.2 in “in vivo” (setting [20]); 11.4 in “in vivo” (setting [21]); 6.2 in the series “in vivo” (setting [22]). Further, the “DU4475 tumor uptake after two hours as % of the 1 h-value” in series [1] is “approx. 96%”. Further, the “higher uptake in CMKLR1-positive DU4475 tumors than in target-negative A549 tumors” value in series [1] stood at 1.7 fold.

Regarding `CSCC[C@H](NC(=O)CNC(=O)[C@@H]1CCCN1C(=O)[C@H](CC1CCCCC1)NC(=O)[C@H](Cc1ccc(O)cc1)NC(=O)CCCCCNC(=O)CN1CCN(CC(=O)O)CCN(CC(=O)O)CCN(CC(=O)O)CC1)C(=O)N[C@@H](Cc1ccc(O)cc1)C(=O)N[C@@H](C)C(=O)N[C@@H](Cc1ccccc1)C(=O)N[C@H](Cc1ccccc1)C(=O)O` [[^68Ga]Ga-DOTA-AHX-CG36, metal not drawn] ({DOTA-Ahx}-Y[Cha]PGMYAF[dF]-OH), in “in vivo” (setting [7]), the tissue uptake at 1 h was 6.4 %ID/g and the tissue uptake at 2 h was 4.9 %ID/g. The “difference in uptake between target-positive and target-negative tumor” value in series [1] was “no clear difference in uptake between target-positive and target-negative tumor”.

`C[C@@H](NC(=O)[C@H](Cc1ccccc1)NC(=O)[C@H](CCCNC(N)=O)NC(=O)CNC(=O)[C@@H]1C[C@@H](O)CN1C(=O)[C@H](CC1CCCCC1)NC(=O)[C@H](Cc1ccc(O)cc1)NC(=O)CCC(=O)NCCCOCCOCCOCCCNC(=O)CN1CCN(CC(=O)O)CCN(CC(=O)O)CCN(CC(=O)O)CC1)C(=O)N1Cc2ccccc2C[C@H]1C(=O)N[C@@H](CO)C(=O)O` [[^68Ga]Ga-DOTA-TTDS-CG34, metal not drawn] ({X1-Suc}-Y[Cha][Hyp]G[Cit]F[dA][Tic]S-OH): in series [1], the “difference in uptake between target-positive and target-negative tumor” value is “no clear difference in uptake between target-positive and target-negative tumor”.

A word on the tissue uptake: it is the percentage of the injected dose found per gram of tissue.
